Measured values published in publication PMC12102759.

B1: MBOAT1 peptide 17-32 (Lysophospholipid acyltransferase 1), 16-mer library wild type / NSP3 ADRP (ORF1ab Nsp3b ADRP, residues 1023-1192) (parent)
chain 1: STYLHPLSELLGIPLD
chain 2: not shown

Variants of: B1
Details: with NSP3 ADRP (ORF1ab Nsp3b ADRP, residues 1023-1192); bait immobilised on MaxiSorp plates (10 µg), library pre-cleared on GST, 2 h binding at 4 °C, five washes; one round per day, days 1-4; value from days 2 and 3; keep out of graded; scale: average fractional NGS count over selection days 2 and 3

| Variant | screen value |
| --- | --- |
| chain 1 Y3F | 0 |
| chain 1 Y3S | 2.54e-05 |
| chain 1 Y3A | 0.00112 |
| chain 1 Y3M | 0.000117 |
| chain 1 Y3T | 3.8e-05 |
| chain 1 Y3W | 0 |
| chain 1 Y3I | 0 |
| chain 1 Y3N | 3.37e-05 |
| chain 1 Y3E | 2.37e-05 |
| chain 1 Y3H | 3.26e-05 |
| chain 1 Y3G | 0.000695 |
| chain 1 Y3D | 0.000184 |
| chain 1 Y3L | 0 |
| chain 1 G12P | 5.99e-05 |
| chain 1 G12H | 0.000369 |
| chain 1 G12D | 0 |
| chain 1 G12Q | 0.000576 |
| chain 1 G12W | 3.64e-05 |
| chain 1 G12M | 0.000127 |
| chain 1 G12A | 0.00306 |
| chain 1 G12V | 0 |
| chain 1 G12N | 5.25e-05 |
| chain 1 G12I | 5.57e-05 |
| chain 1 G12S | 0.000443 |
| chain 1 L4F | 0.000245 |
| chain 1 L4R | 0 |

| Variant | screen value |
| --- | --- |
| chain 1 L4A | 1.65e-05 |
| chain 1 L4H | 0.000101 |
| chain 1 L4W | 0.000705 |
| chain 1 L4D | 0 |
| chain 1 L4V | 0.000192 |
| chain 1 L4M | 8.68e-05 |
| chain 1 L4Y | 0.000191 |
| chain 1 L4E | 0 |
| chain 1 L4P | 7.55e-05 |
| chain 1 L4S | 0 |
| chain 1 L4N | 0 |
| chain 1 H5N | 0.0049 |
| chain 1 H5I | 0 |
| chain 1 H5Q | 0 |
| chain 1 H5M | 0 |
| chain 1 H5S | 5.25e-05 |
| chain 1 H5L | 0 |
| chain 1 L15M | 0.000121 |
| chain 1 L15V | 0.000529 |
| chain 1 L15A | 0 |
| chain 1 L15T | 9.33e-05 |
| chain 1 L15I | 0.000505 |
| chain 1 L15Y | 0.000938 |
| chain 1 L15W | 8.57e-05 |
| chain 1 L15Q | 0 |
| chain 1 L15E | 0 |

| Variant | screen value |
| --- | --- |
| chain 1 L15P | 0 |
| chain 1 L10M | 0.000281 |
| chain 1 L10T | 0 |
| chain 1 L10G | 0 |
| chain 1 L10S | 4.6e-05 |
| chain 1 L10I | 1.63e-05 |
| chain 1 L10R | 0 |
| chain 1 L10Y | 0.157 |
| chain 1 L10N | 1.09e-05 |
| chain 1 L10Q | 0 |
| chain 1 L10H | 3e-05 |
| chain 1 L10K | 0 |
| chain 1 L10F | 0.00233 |
| chain 1 L10V | 0 |
| chain 1 P14R | 0 |
| chain 1 P14E | 7.55e-05 |
| chain 1 P14N | 3.9e-05 |
| chain 1 P14F | 0 |
| chain 1 P14S | 1.48e-05 |
| chain 1 P14Y | 1.08e-05 |
| chain 1 P14I | 2.27e-05 |
| chain 1 P14M | 0.00294 |
| chain 1 P14Q | 3.28e-05 |
| chain 1 P14D | 0.000131 |
| chain 1 P14T | 0.000186 |
| chain 1 P14G | 0.000153 |

| Variant | screen value |
| --- | --- |
| chain 1 S8G | 0 |
| chain 1 S8N | 0 |
| chain 1 L7M | 0 |
| chain 1 L7A | 0 |
| chain 1 L7I | 0 |
| chain 1 T2E | 1.15e-05 |
| chain 1 T2W | 2.61e-05 |
| chain 1 T2K | 0 |
| chain 1 T2S | 5.82e-05 |
| chain 1 T2I | 2.27e-05 |
| chain 1 T2Y | 0.00544 |
| chain 1 T2R | 0 |
| chain 1 T2V | 0.000388 |
| chain 1 T2H | 0.000152 |
| chain 1 T2Q | 4.36e-05 |
| chain 1 T2L | 0.000208 |
| chain 1 T2A | 0.000138 |
| chain 1 T2F | 0.00217 |
| chain 1 L11I | 0.000109 |
| chain 1 L11R | 4.2e-05 |
| chain 1 L11N | 2.27e-05 |
| chain 1 L11Y | 0.00171 |
| chain 1 L11H | 0 |
| chain 1 L11G | 7.04e-06 |
| chain 1 L11M | 1.65e-05 |
| chain 1 L11S | 3.31e-05 |

| Variant | screen value |
| --- | --- |
| chain 1 L11Q | 0 |
| chain 1 L11W | 0.0297 |
| chain 1 L11A | 8.96e-05 |
| chain 1 I13L | 0.00192 |
| chain 1 I13R | 1.08e-05 |
| chain 1 I13D | 0 |
| chain 1 I13T | 3.35e-05 |
| chain 1 I13N | 3.03e-05 |
| chain 1 I13W | 0.00073 |
| chain 1 I13A | 5.81e-05 |
| chain 1 I13Q | 0.00199 |
| chain 1 I13Y | 0.00165 |
| chain 1 I13F | 0.00253 |
| chain 1 I13V | 3.18e-05 |
| chain 1 I13H | 8.18e-05 |
| chain 1 I13K | 0 |
| chain 1 E9S | 0 |
| chain 1 E9M | 0 |
| chain 1 E9T | 0 |
| chain 1 E9V | 0 |
| chain 1 E9Y | 0 |
| chain 1 E9N | 0 |
